# Reference: publication PMC4406585
# Key:
# anti-GBB5-A1 scFv = assay: ELISA; conditions: chain shown with the change; biotinylated peptides immobilized in streptavidin-coated microtiter plate wells; soluble scFv protein; parent: est. 100; read off a plot
# anti-GBB5-H9 scFv = assay: ELISA; conditions: chain shown with the change; biotinylated peptides immobilized in streptavidin-coated microtiter plate wells; soluble scFv protein; parent: est. 100; read off a plot
# [1] = target: anti-GBB5-H9 scFv-Fc (human); assay: SEC; size exclusion chromatography and denaturing SDS-PAGE of the purified scFv-Fc; conditions not given
# anti-GBB5-A1 scFv, sequence (chain, as listed by the source, chain 1 of 2): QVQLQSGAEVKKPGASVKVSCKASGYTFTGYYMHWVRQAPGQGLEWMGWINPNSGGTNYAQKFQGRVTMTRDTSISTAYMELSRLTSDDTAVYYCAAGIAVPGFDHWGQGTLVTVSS
# anti-GBB5-A1 scFv, sequence (chain, as listed by the source, chain 2 of 2): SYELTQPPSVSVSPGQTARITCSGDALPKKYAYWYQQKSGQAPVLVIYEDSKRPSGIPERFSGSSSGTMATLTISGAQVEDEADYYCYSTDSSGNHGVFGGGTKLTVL
Binder,percent of parent (% signal of wild type) (anti-GBB5-A1 scFv),percent of parent (% signal of wild type) (anti-GBB5-H9 scFv),stoichiometry N [1]
GSGSKLHAVELHQVAERV [GBB5 peptide (Guanine Nucleotide-Binding Protein Beta 5) D4A],0.3,1.9,–
GSGSALHDVELHQVAERV [GBB5 peptide (Guanine Nucleotide-Binding Protein Beta 5) K1A],0.2,74,–

# Next, values leading:
percent of parent (% signal of wild type) (anti-GBB5-A1 scFv),percent of parent (% signal of wild type) (anti-GBB5-H9 scFv),stoichiometry N [1],Binder
51,55,–,GSGSKLHDVELHQAAERV [GBB5 peptide (Guanine Nucleotide-Binding Protein Beta 5) V14A]
56,1.7,–,GSGSKLHDVELHQVAEAV [GBB5 peptide (Guanine Nucleotide-Binding Protein Beta 5) R13A]
–,–,2,anti-GBB5-H9 scFv-Fc (Fc fusion) VH: EVQLVQSGGGLVQPGGSLRLSCAASGFTVSSNYMSWVRQAPGKGLEWVSSISSSSSYIYYADSVKGRFTISRDNAKNSLYLQMNSLRAEDTAVYYCARSYPFDYWGQGTLVTVSS VL: NFMLTQPHSVSESPGKAVTISCTGSSGDVARNYVQWYQQRPGSAPIIVIYEDTQRPSGVPDRFSGSIDSSSNSASLTISGLTTEDEADYYCQSYDGHNVIFGGGTKLTVL
